Consider ten molecules from PMC5115805, “The Chloroplast SRP Systems of Chaetosphaeridium globosum and Physcomitrella patens as Intermediates in the Evolution of SRP-Dependent Protein Transport in Higher Plants” (PLoS ONE, 2016).

Changes are numbered by the printed parent chain. Numbers in names are those of the source. Where “and” joins values, the source holds several entries; their conditions need not be identical. Equal values may be shown once.

The target in data set [1] is At-His-cpSRP43, fluorescently labeled (Arabidopsis thaliana) (UniProt O22265). The data set is described as follows: MST; labeled cpSRP43 (20 nM) or eGFP-Cg-43 (75 nM) constant, cpSRP54 constructs titrated; 300 mM NaCl, 2.7 mM KCl, 10 mM Na2HPO4, 1.8 mM K2HPO4, 5 mM MgCl2, 2 mM DTT, 0.05% Tween20, pH 7.3; Monolith NT.115, MST power 20%, LED power 20%.
In data set [2] the target is Chaetosphaeridium globosum cpSRP43(D189Y) (Chaetosphaeridium globosum). The data set is described as above.
In data set [3] the target is Cg-His-eGFP-cpSRP43 (Chaetosphaeridium globosum). The data set is described as above.
Data set [4] relates to Pp-cpSRP54-His (Physcomitrella patens). The data set is described as follows: MST. As to conditions: 5 mM Mg2+, MST: 300 mM NaCl, 2.7 mM KCl, 10 mM Na2HPO4, 1.8 mM K2HPO4, 5 mM MgCl2, 2 mM DTT, 0.05% Tween20, pH 7.3, labeled Pp-cpSRP54 10-20 nM, temperature not stated ….
Data set [5] deals with Pp-His-cpSRP43, fluorescently labeled (Physcomitrella patens). The data set is described as follows: MST; labeled cpSRP43 (20 nM) or eGFP-Cg-43 (75 nM) constant, cpSRP54 constructs titrated; 300 mM NaCl, 2.7 mM KCl, 10 mM Na2HPO4, 1.8 mM K2HPO4, 5 mM MgCl2, 2 mM DTT, 0.05% Tween20, pH 7.3; Monolith NT.115, MST power 20%, LED power 20%.
Data set [6] has as its target T1, At-His-cpSRP54 (Arabidopsis thaliana, UniProt P37107 76-564).
T1 construct: cpSRP54 of Arabidopsis thaliana; the results call it 'full-length' as against the M-domain; also called At-His-54; At-54; source: E. coli BL21(DE3) or Rosetta2(DE3), purified (Ni-NTA, desalted); not shown: His tag, N-terminal, kept
T1 sequence (looked up): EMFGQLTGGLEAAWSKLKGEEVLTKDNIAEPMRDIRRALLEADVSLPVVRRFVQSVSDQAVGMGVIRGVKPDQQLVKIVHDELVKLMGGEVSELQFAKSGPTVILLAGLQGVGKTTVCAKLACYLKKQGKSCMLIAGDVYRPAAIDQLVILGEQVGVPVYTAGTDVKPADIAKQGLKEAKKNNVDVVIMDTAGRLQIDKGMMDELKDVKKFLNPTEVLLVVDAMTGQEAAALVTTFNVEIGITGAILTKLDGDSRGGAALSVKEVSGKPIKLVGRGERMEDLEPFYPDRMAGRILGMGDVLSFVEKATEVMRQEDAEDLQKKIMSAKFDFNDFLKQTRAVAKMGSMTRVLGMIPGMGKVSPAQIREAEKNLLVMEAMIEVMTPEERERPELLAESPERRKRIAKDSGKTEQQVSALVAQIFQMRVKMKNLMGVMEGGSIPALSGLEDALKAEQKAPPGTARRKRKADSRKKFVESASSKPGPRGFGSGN
Described as above. As to conditions: both partners purified.

Data set [7] addresses T1, At-His-cpSRP54. The data set is described as follows: pull-down; GST-cpSRP43 constructs on glutathione-sepharose, 20 μg of GST- and His-fusion constructs; eluates by SDS-PAGE and Coomassie staining. As to conditions: both partners purified.

What is called Kd is a measure of binding affinity in units of concentration. Regarding At-His-cpSRP54M (domain or fragment), the dissociation constant Kd in data set [1] is 60 nM and 90 nM.
On to Cg-His-cpSRP54M (domain or fragment), for which the Kd in data set [2] is 10000 nM and 11000 nM; in data set [3], 11000 nM.
For the molecule Ec-SRP RNA, in data set [4] (one of two replicate values), the equilibrium dissociation constant (Kd) is 17 nM and 27 nM.
Molecule Ot-cpSRP RNA had a Kd in data set [4] of 185 nM.
In data set [5], Pp-cpSRP54-His (natural protein) displayed a Kd of 9000 nM.
With Pp-cpSRP RNA, the Kd in data set [4] worked out at 1300 nM.

B1: At-His-cpSRP43, fluorescently labeled (natural protein, Arabidopsis thaliana, UniProt O22265 57-373, looked up)
chain: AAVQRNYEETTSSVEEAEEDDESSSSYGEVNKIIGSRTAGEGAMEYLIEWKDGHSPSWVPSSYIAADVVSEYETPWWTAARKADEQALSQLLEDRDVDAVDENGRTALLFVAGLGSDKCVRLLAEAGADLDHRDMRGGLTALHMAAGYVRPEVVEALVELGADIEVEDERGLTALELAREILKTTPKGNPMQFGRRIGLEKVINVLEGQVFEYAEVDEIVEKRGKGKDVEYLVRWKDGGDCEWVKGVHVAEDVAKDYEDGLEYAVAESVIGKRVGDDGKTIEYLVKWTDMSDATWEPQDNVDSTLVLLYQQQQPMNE
modifications: fluorescent label on amines (Monolith NT.115 Protein Labeling Kit RED-NHS)
notes: cpSRP43 of Arabidopsis thaliana; the results speak of the 'full-length Arabidopsis thaliana cpSRP subunits'; the construct is not described among the plasmids; also called Ath-His-cpSRP43; At-43; source: E. coli BL21(DE3) or Rosetta2(DE3), purified (Ni-NTA, desalted); not shown: His tag, N-terminal, kept
For the molecule B1, the Kd in data set [6] was 50 nM and 60 nM.

B2: At-GST-cpSRP43(Y269E) (natural protein, Arabidopsis thaliana, UniProt O22265 57-373, looked up)
chain: B1 chain with Y213E
notes: cpSRP43 of Arabidopsis thaliana in pGEX4T3, with Y269E; made from the construct of m9; also called pGEX4T3-At-GST-cpSRP43(Y269E); source: E. coli BL21(DE3) or Rosetta2(DE3), purified (glutathione-sepharose); not shown: GST, N-terminal, kept
Consider B2, for which the binding result in data set [7] is listed as “binds”.

B3: At-GST-cpSRP43 (natural protein, Arabidopsis thaliana, UniProt O22265 57-373, looked up)
chain: B1 chain
notes: cpSRP43 of Arabidopsis thaliana in pGEX4T3; also called At-GST-43; GST-cpSRP43 from Arabidopsis thaliana; source: E. coli BL21(DE3) or Rosetta2(DE3), purified (glutathione-sepharose); not shown: GST, N-terminal, kept
Take B3: the binding result in data set [7] is on record as “binds”.

B4: At-GST-cpSRP43(Y269D) (natural protein, Arabidopsis thaliana, UniProt O22265 57-373, looked up)
chain: B1 chain with Y213D
notes: cpSRP43 of Arabidopsis thaliana in pGEX4T3, with Y269D; made from the construct of m9; also called pGEX4T3-At-GST-cpSRP43(Y269D); source: E. coli BL21(DE3) or Rosetta2(DE3), purified (glutathione-sepharose); not shown: GST, N-terminal, kept
As for B4, in data set [7], the binding result is on record as “binds”.
